Earlier results as cited in publication PMC12732943.

Biological target: Fibrin (Homo sapiens) (UniProt P02671)

GPVI (monomeric) (from UniProt Q9HCN6)
Kd: 302 nM
